# Tests used:
# [1] = target: human lipocalin-2/NGAL receptor (hNGAL-R) (human (endogenous in Caco-2 BBE)) (UniProt Q8WUG5)
# [2] = target: human lipocalin-2/NGAL receptor (hNGAL-R) (human (endogenous in Caco-2 BBE)) (UniProt Q8WUG5); test: MST; as a1 but co-incubated with 500 pM hNGAL as a binding competitor to A488-PC3
# [3] = target: human lipocalin-2/NGAL receptor (hNGAL-R) (human (endogenous in Caco-2 BBE)) (UniProt Q8WUG5); remark: listed apart in the source
# [4] = target: human lipocalin-2/NGAL receptor (hNGAL-R) (human (endogenous in Caco-2 BBE)) (UniProt Q8WUG5); test: MST; fixed amounts of colon-like Caco-2 BBE plasma membrane vesicles pre-incubated 5 min at room temperature with varying A488-PC3 (10-1000 nM); 50 mM Tris pH 7.4, 150 mM NaCl, 10 mM MgCl2, 0.05% Tween-20; Hill fit with coefficient 1.0
# hNGAL-R (Homo sapiens) = hNGAL-R (Homo sapiens) (UniProt Q8WUG5); conditions: cited from earlier work
# Sequence of hNGAL-R (Homo sapiens) (Q8WUG5 whole entry): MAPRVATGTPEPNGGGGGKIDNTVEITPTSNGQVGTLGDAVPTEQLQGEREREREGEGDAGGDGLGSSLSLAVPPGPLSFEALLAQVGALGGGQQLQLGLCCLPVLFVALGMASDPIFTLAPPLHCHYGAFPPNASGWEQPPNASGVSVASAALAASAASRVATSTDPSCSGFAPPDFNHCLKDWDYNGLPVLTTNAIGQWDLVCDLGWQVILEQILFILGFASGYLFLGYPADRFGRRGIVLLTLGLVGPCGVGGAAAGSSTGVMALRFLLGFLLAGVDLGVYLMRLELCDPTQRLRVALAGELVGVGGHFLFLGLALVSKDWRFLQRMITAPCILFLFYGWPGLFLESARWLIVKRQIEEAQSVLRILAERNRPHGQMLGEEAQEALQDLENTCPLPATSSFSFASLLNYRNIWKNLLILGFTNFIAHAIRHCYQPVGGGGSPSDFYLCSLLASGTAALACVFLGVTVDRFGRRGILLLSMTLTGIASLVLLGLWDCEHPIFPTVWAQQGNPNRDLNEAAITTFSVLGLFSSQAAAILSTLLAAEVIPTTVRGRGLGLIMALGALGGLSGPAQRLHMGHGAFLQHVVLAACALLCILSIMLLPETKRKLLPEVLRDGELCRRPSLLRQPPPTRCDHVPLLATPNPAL
# Sequence of human lipocalin-2/NGAL receptor (hNGAL-R) (human (endogenous in Caco-2 BBE)) (Q8WUG5 112-649): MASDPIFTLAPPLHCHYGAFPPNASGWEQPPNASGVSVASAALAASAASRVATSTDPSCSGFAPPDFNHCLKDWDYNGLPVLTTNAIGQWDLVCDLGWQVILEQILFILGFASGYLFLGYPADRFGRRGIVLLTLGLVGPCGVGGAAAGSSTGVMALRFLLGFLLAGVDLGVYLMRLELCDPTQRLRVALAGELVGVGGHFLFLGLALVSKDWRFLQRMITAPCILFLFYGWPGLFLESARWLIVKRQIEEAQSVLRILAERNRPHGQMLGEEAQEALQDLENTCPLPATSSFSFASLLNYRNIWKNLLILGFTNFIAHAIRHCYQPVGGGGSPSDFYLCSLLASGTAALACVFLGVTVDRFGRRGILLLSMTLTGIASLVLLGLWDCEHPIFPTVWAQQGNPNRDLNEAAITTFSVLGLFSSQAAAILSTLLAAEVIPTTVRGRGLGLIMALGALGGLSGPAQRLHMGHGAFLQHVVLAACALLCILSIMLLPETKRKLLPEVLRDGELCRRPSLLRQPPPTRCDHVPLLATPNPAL
# Sequence of Alexa Fluor 546-transferrin from human serum (P02787 20-698): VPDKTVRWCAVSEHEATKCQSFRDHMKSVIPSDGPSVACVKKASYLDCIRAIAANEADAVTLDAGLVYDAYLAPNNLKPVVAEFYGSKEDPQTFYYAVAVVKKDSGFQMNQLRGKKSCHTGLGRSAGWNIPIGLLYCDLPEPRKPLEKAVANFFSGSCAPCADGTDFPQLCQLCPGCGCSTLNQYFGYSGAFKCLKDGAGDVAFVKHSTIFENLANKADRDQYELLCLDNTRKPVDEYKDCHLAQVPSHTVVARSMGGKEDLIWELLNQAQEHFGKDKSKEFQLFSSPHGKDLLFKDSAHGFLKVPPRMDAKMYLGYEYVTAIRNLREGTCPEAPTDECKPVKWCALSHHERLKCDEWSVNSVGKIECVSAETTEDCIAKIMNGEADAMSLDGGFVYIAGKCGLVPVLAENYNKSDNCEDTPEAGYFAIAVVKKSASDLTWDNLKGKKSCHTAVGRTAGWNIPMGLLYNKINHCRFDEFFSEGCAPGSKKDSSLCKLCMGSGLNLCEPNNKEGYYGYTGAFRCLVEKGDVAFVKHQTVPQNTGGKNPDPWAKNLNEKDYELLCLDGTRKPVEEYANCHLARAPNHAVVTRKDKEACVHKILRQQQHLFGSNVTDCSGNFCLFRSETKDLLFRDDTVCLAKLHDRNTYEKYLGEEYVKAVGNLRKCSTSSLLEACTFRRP
# Sequence of hNGAL (lipocalin-2) (P80188 21-198): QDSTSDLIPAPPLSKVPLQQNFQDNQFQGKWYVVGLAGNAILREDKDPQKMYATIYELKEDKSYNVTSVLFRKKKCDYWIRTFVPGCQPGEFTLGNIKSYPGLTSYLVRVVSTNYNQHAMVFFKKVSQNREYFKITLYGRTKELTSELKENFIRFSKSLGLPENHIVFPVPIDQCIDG
# Sequence of Alexa Fluor 546-labelled metallothionein (rabbit apo-MT-2) (P18055 whole entry): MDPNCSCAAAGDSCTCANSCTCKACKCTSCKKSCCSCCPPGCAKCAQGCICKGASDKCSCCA
substance,measurement,setting,value
Alexa Fluor 488 (A488)-PC3 (phytochelatin PC3) (peptide),"internalization of A488-PC3 (up to 5.6 µM, 24 h) by colon-like Caco-2 BBE cells, two-site fit, first app KD",[1],90 nM
same,EC50 with 500 pM hNGAL,[2],225 nM
same,inhibition by 500 pM apical hNGAL of the apical decrease of 700 nM A488-PC3 in colon-like Caco-2 BBE Transwell monolayers (AUC over 8 h),[3],25%
same,EC50,[4],18.6 nM
Alexa Fluor 546-labelled metallothionein (rabbit apo-MT-2) (from UniProt P18055 1-62) (natural protein),inhibition by 500 pM apical hNGAL of the apical decrease of 700 nM A546-MT in colon-like Caco-2 BBE Transwell monolayers (AUC over 8 h),[3],40%
Alexa Fluor 546-transferrin from human serum (from UniProt P02787 20-698) (natural protein),inhibition by 500 pM apical hNGAL of the apical decrease of 700 nM A546-Tf in colon-like Caco-2 BBE Transwell monolayers (AUC over 8 h),[3],25%
hNGAL (lipocalin-2) (from UniProt P80188),Kd,hNGAL-R (Homo sapiens),0.092 nM

# — PMC3734285, “Expression and Function of the Lipocalin-2 (24p3/NGAL) Receptor in Rodent and Human Intestinal Epithelia” (PLoS ONE, 2013)
